How the values were obtained:
[1] = target: human NKG2D (human) (UniProt P26718); test: flow cytometry on NKL cells, biotin mAb on ice 30 min, APC-streptavidin, before culture (0 h)
[2] = target: human NKG2D (human) (UniProt P26718); test: cell-based or functional assay
[3] = target: human NKG2D (human) (UniProt P26718); test: flow cytometry on NKL cells, biotin mAb on ice 30 min, then 16 h at 37° C., APC-streptavidin (antibody left on the surface after culture)
[4] = target: 8.3 TcR; test: tetramer staining, flow cytometry on CD8+ T cells of 8.3 TcR-transgenic NOD mice

Chain of UniProt P26718 (P26718 whole entry T72A): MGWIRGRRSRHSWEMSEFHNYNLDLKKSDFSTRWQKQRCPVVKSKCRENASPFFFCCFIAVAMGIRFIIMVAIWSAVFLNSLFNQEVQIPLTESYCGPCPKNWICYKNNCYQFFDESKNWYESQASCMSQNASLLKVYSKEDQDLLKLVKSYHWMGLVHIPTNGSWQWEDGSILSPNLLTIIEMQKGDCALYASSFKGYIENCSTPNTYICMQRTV

mean fluorescence intensity (arbitrary units) (arbitrary units) [1] | decrease in expression of NKG2D on the cell surface [2] [%] | mean fluorescence intensity (arbitrary units) (arbitrary units) [3] | percent of CD8+ T cells tetramer positive [4] [%] | Substance
186 | 67 | 61 | – | mouse anti-human NKG2D mAb (R&D Systems clone 149810) (antibody)
– | – | – | > 90 | NRP-V7/H-2K^d tetramer (from UniProt P01902 22-305) (peptide-MHC)
